Results on five molecules are retold here after PMC125294 (Arthritis Research, 2002).

Ends that are not written are not given here.

The test system of experiment [1] is polyclonal lymph node cell population. Particulars: ref [9] (also Fig. 3); cited from earlier work.
For experiment [2], the system named is MMP peptide-specific T cells. Kind of experiment: Delayed-type hypersensitivity. Conditions: control ovalbumin peptide.
Experiment [3] concerns the target T1, Lewis rat MHC class II molecule, RT1.B^L (rat (Lewis), UniProt P20037 24-256; P29826 28-263).
T1 sequence (looked up) 1: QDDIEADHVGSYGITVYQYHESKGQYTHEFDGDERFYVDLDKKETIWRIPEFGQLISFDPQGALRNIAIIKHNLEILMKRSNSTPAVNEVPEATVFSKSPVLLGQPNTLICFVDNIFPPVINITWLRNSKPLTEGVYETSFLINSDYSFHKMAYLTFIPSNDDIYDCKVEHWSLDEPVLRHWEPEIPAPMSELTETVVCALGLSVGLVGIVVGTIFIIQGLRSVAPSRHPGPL
T1 sequence (looked up) 2: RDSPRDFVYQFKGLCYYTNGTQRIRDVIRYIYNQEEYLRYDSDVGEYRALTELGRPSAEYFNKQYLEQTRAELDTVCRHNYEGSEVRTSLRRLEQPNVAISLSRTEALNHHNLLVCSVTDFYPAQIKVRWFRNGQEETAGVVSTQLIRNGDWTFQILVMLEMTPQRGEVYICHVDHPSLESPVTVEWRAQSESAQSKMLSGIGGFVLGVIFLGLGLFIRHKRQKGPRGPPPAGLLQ
The experiment can be described thus: competitive MHC class II-peptide binding assay.

For SNTFGLQLE [hsp65_178–186], in experiment [1], the “proliferative response to mycobacterial hsp65 178–186” value was “very low”. Take ISQAVHAAHAEINEAGR [OVA323–339]: the “DTH reaction (in words), control peptide” value in experiment [2] was “no DTH reaction was observed”. Regarding FLYFFSGSSQLEFDP-NH2 [Rat MMP-3_(444-458) peptide], the IC50 (usually the midpoint of a concentration-inhibition curve) in experiment [3] is not above 8 µM. In turn, VKEGHSPPDDVDIVI-NH2 [Human MMP-16_(539-553) peptide] returned an IC50 in experiment [3] of 64 to 128 µM.

In the case of SAFWPSLPSGLDAAY-NH2 [Rat MMP-10_(329-343) peptide], the IC50 in experiment [3] was in the range of 128 to 256 µM.
